Patent publication US9273304B2, “Inactivation method” (Thermo Fisher Scientific Baltics UAB, priority 2006, dated 2016)

Key:
Format in all cases: biochemical
Taq DNA polymerase [1] = molecular target: T1, Taq DNA polymerase (Thermus aquaticus, UniProt P19821); assay: Activity in PCR measured by incorporation of [3H]-dTTP into the PCR product (pH and Mg2+ effect)
Protocol: Activity of Taq DNA polymerase modified with N-ethoxycarbonyl-N-2,3-dimethylmaleinimide at different pH during was measured by incorporation [^3H]-dTTP nucleotide into the PCR product.
Sets of PCR were carried out at the following pH values determined at 25° C.: 8.2, 8.3, 8.4, 8.5, 8.6, 8.7, and 8.8. The reactions were preformed in the GeneAmp® PCR System 9700 (Applied Biosystems) using 1.25 units of the modified enzymes in aliquots ([…] of the reaction buffer of the following composition: 20 mM Tris-HCl (pH values indicated above), 20 mM KCl, 5 mM (NH4)SO4, 1.5 mM MgCl2 supplemented with 0.2 mM dNTP, 0.8 MBq/ml [^3H]-dTTP, 0.5 […] of both PCR primers ([SEQ ID NO: 1] 5′-[…]-3′ and [SEQ ID NO: 2] 5′-[…]-3′), and human DNA (10 ng/50 μl).
Thermal cycling profile was the following: 95° C.—4 min; (95° C.—0.5 min, 50° C.—0.5 min, 72° C.—1 min)—30 cycles; 72° C.—7 min.
Activity of the modified DNA polymerase in PCR was determined as described in the Example 8. A set of PCR reactions was carried out in the reaction buffer (see Example 7) supplemented with the following Mg^2+ concentrations: 1 mM, 1.5 mM, 2 mM, 2.5 mM, 3 mM, 3.5 mM, 4 mM, 5 mM, 6 mM, 7 mM, and 8 mM.

Taq DNA polymerase [2] = molecular target: T1, Taq DNA polymerase; assay: Temperature effect on activity of modified versus unmodified Taq DNA polymerase; details: FIG. 7
Protocol: The activity assay for both DNA polymerases was as described in the Example 2 with the following modifications: • 1. DNA polymerization using the unmodified DNA polymerase was carried out in the buffer of the following composition: 10 mM Tris-HCl (pH 8.8 at 25° C.), 50 mM KCl, 1.5 mM MgCl2, and 0.08% Nonidet P40. • 2. DNA polymerization using the modified DNA polymerase was carried out in the buffer of the following composition: 20 mM Tris-HCl (pH 8.3 at 25° C.), 20 mM KCl, 5 mM (NH4)2SO4, and 1.5 mM MgCl2.
Enzyme activities at different temperatures were normalized to the activity of the unmodified Taq DNA polymerase at 70° C.

Taq DNA polymerase [3] = molecular target: T1, Taq DNA polymerase; assay: Polymerase activity assay: incorporation of [3H]-dTTP into the polynucleotide adsorbed on DE-81 in 30 min at 70° C.; details: for Activity at 70° C. (%) After 10 min. preheating at 95° C. / Activity at 70° C. (%) Without preheating at 95° C.: aqueous solution
Protocol: The measure of the enzyme activity was incorporation of [^3H]-dTTP into polynucleotide fraction. One unit of polymerase activity is defined as the enzyme amount which incorporates 10 nmoles of deoxyribonucleotides into the polynucleotide adsorbed on DE-81 in 30 min at 70° C.
For activity assays, Taq DNA polymerase was diluted up to 4 u/ml with the dilution buffer of the following composition: 20 mM Tris-HCl (pH 8.8 at 25° C.), 1 mM EDTA, 1 mM DTT, and BSA (0.1 mg/ml). Reactions were carried out at 70° C. for 30 min with 5 μl of the diluted enzyme in 50 μl of the reaction buffer of the following composition: 67 mM Tris-HCl (pH 8.8 at 25° C.), 50 mM NaCl, 6.7 mM MgCl2, 1 mM DTT, and BSA (0.1 mg/ml). The reaction buffer was supplemented with 0.2 mM dNTP, [3H]-dTTP (0.4 MBq/ml) and 0.75 mM activated DNA from calf thymus.
Activity of the modified enzymes was measured either with the pre-incubation step, or without it, for 10 min at 95° C. in the pre-heating buffer of the following composition: 20 mM Tris-HCl (pH 8.25 at 25° C.), 100 mM KCl, 2 mM MgCl2, 0.5% Tween 20, 0.5% Nonidet P40, and 16% glycerol.
Aliquots (35 μl) of the enzyme solution were mixed with 2.25 μl aliquots of the N-ethoxycarbonyl-2,3-dimethylmaleinimide solutions described above resulting in the following molar ratios of Taq DNA polymerase to N-ethoxycarbonyl-2,3-dimethylmaleinimide: 1/1280 1/640, 1/320, 1/160, 1/110, 1/80, 1/40. The mixtures were incubated for 20 hours at 4° C. to modify the Taq DNA polymerase. Control samples, in which the enzyme was left unmodified (e.g., the ratio was 1/0), were obtained by mixing the Taq DNA polymerase with a 2.25 μl aliquot of DMF. These control samples were incubated under the same conditions as the modified ones.
The samples of the unmodified Taq DNA polymerase and the modified Taq DNA polymerases were diluted 250-fold in the pre-heating buffer (see Example 2) and activities of the modified enzyme were measured both before heat-reactivation and after it, as described in the Example 2. Activities of both inactivated and heat-reactivated DNA polymerases were determined as described in the Example 2, and the data were normalized to activity of the unmodified Taq DNA polymerase
Aliquots (20.6 μl) of the diluted enzyme solution were mixed with 1 μl of N-isobutoxycarbonyl-2,3-dimethylmaleinimide solutions described above resulting in different molar ratios of Taq DNA polymerase to N-isobutoxycarbonyl-2,3-dimethylmaleinimide (1/320, 1/160, 1/80 and 1/40). The mixtures were incubated 20 hours at 4° C. to modify the Taq DNA polymerase. Control samples, in which the enzyme was left unmodified (e.g., the ratio was 1/0), were obtained by mixing the Taq DNA polymerase with a 1 μl aliquot of DMF. These control samples were incubated under the same conditions as the modified ones. The heat-reactivation of the modified enzymes was performed as described in the Example 3.

[4] = molar ratio Taq DNA polymerase/N-etoxycarbonyl-2,3-dimethylmaleinimide 1/80
[5] = molar ratio Taq DNA polymerase/N-etoxycarbonyl-2,3-dimethylmaleinimide 1/110
[6] = molar ratio Taq DNA polymerase/N-etoxycarbonyl-2,3-dimethylmaleinimide 1/160
[7] = molar ratio Taq DNA polymerase/N-etoxycarbonyl-2,3-dimethylmaleinimide 1/320
[8] = molar ratio Taq DNA polymerase/N-etoxycarbonyl-2,3-dimethylmaleinimide 1/640
[9] = molar ratio Taq DNA polymerase/N-etoxycarbonyl-2,3-dimethylmaleinimide 1/1280

T1 sequence (P19821 whole entry): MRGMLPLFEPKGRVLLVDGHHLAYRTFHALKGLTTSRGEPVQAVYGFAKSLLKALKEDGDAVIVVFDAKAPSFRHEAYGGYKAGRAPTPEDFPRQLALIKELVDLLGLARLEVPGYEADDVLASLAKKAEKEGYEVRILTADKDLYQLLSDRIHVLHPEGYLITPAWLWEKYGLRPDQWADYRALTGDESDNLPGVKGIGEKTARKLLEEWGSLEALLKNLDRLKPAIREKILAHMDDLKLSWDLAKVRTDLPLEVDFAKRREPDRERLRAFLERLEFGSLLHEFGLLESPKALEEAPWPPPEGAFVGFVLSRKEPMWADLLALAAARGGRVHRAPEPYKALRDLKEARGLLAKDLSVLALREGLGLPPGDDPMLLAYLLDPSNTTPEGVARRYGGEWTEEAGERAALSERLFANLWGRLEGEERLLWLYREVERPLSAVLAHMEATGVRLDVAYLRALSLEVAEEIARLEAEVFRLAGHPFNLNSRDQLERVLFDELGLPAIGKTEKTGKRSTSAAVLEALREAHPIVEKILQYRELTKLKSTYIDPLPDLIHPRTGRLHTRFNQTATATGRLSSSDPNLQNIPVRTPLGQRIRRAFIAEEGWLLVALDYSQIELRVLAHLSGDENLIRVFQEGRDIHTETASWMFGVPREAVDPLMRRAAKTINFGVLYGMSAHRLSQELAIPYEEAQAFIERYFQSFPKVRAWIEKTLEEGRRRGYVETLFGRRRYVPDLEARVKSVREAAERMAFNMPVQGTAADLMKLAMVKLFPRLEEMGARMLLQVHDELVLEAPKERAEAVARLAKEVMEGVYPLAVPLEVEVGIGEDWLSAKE

Taq DNA polymerase modified with N-etoxycarbonyl-2,3-dimethylmaleinimide: Recombinant Taq DNA polymerase reversibly inactivated by reaction with N-ethoxycarbonyl-2,3-dimethylmaleinimide in aqueous solution (preferred molar ratio 1/110)
activity within the 1.5-5.0 mM range of Mg2+ concentrations (Taq DNA polymerase [1]; 1.5-5.0 mM Mg2+): ≥ 70%
Activity at 70° C. (%) (Taq DNA polymerase [1]; [Mg2+] 1 mM, incorporation of [3H]-dTTP into the PCR product): ~0%
Activity at 70° C. (%) (Taq DNA polymerase [1]; [Mg2+] 1.5 mM): ~70%
Activity at 70° C. (%) (Taq DNA polymerase [1]; [Mg2+] 2.0 mM): ~70%
Activity at 70° C. (%) (Taq DNA polymerase [1]; [Mg2+] 2.5 mM): ~100%
Activity at 70° C. (%) (Taq DNA polymerase [1]; [Mg2+] 3.0 mM): ~100%
Activity at 70° C. (%) (Taq DNA polymerase [1]; [Mg2+] 3.5 mM): ~100%
Activity at 70° C. (%) (Taq DNA polymerase [1]; [Mg2+] 4.0 mM): ~90%
Activity at 70° C. (%) (Taq DNA polymerase [1]; [Mg2+] 5.0 mM): ~70%
Activity at 70° C. (%) (Taq DNA polymerase [1]; [Mg2+] 6.0 mM): ~30%
Activity at 70° C. (%) (Taq DNA polymerase [1]; [Mg2+] 7.0 mM): ~20%
Activity at 70° C. (%) (Taq DNA polymerase [1]; [Mg2+] 8.0 mM): ~10%
Activity at 70° C. (%) (Taq DNA polymerase [1]; ambient pH 8.2, incorporation of [3H]-dTTP into the PCR product): ~30%
Activity at 70° C. (%) (Taq DNA polymerase [1]; ambient pH 8.3): ~80%
Activity at 70° C. (%) (Taq DNA polymerase [1]; ambient pH 8.4): ~100%
Activity at 70° C. (%) (Taq DNA polymerase [1]; ambient pH 8.5): ~100%
Activity at 70° C. (%) (Taq DNA polymerase [1]; ambient pH 8.6): ~100%
Activity at 70° C. (%) (Taq DNA polymerase [1]; ambient pH 8.7): ~100%
Activity at 70° C. (%) (Taq DNA polymerase [1]; ambient pH 8.8): ~60%
activity within the pH 8.3-8.7 range (Taq DNA polymerase [1]; pH 8.3-8.7): ≥ 80%
residual activity at 70° C. (Taq DNA polymerase [2]; 70° C., normalized to unmodified Taq DNA polymerase at 70° C.): ~20%
activity at different temperatures up to 50° C. (Taq DNA polymerase [2]; up to 50° C., without reactivation): practically inactive
restoration of the enzyme activity after incubation for 10 min at 94° C. (Taq DNA polymerase [3]; incubation 10 min at 94° C.): almost in the complete restoration of the enzyme activity
Activity at 70° C. (%) After 10 min. preheating at 95° C. (Taq DNA polymerase [3]; molar ratio Taq DNA polymerase/N-etoxycarbonyl-2,3-dimethylmaleinimide 1/40): ~100%
Activity at 70° C. (%) Without preheating at 95° C. (Taq DNA polymerase [3]; molar ratio Taq DNA polymerase/N-etoxycarbonyl-2,3-dimethylmaleinimide 1/40, normalized to unmodified enzyme): ~30%
Activity at 70° C. (%) After 10 min. preheating at 95° C. (Taq DNA polymerase [3]; [4]): ~90%
Activity at 70° C. (%) Without preheating at 95° C. (Taq DNA polymerase [3]; [4]): ~20%
Activity at 70° C. (%) After 10 min. preheating at 95° C. (Taq DNA polymerase [3]; [5]): ~100%
Activity at 70° C. (%) Without preheating at 95° C. (Taq DNA polymerase [3]; [5]): ~20%
Activity at 70° C. (%) After 10 min. preheating at 95° C. (Taq DNA polymerase [3]; [6]): ~90%
Activity at 70° C. (%) Without preheating at 95° C. (Taq DNA polymerase [3]; [6]): ~20%
Activity at 70° C. (%) After 10 min. preheating at 95° C. (Taq DNA polymerase [3]; [7]): ~90%
Activity at 70° C. (%) Without preheating at 95° C. (Taq DNA polymerase [3]; [7]): ~30%
Activity at 70° C. (%) After 10 min. preheating at 95° C. (Taq DNA polymerase [3]; [8]): ~50%
Activity at 70° C. (%) Without preheating at 95° C. (Taq DNA polymerase [3]; [8]): ~40%
Activity at 70° C. (%) After 10 min. preheating at 95° C. (Taq DNA polymerase [3]; [9]): ~80%
Activity at 70° C. (%) Without preheating at 95° C. (Taq DNA polymerase [3]; [9]): ~90%
specific activity retained at 70° C. temperature without preheating (Taq DNA polymerase [3]; several independent experiments, preferred modification (N-ethoxycarbonyl-2,3-dimethylmaleinimide, aqueous, 1/110)): 21±6%
